PMC12093266, “Synergistic action of two radical SAM enzymes in the biosynthesis of thuricin CD, a two-component sactibiotic” (Chemical Science, 2025)
pKd: −log10 of the molar value.

Legend:
[1] = target: TrnD (Bacillus thuringiensis); assay: MST; TrnD fluorescently labeled; TrnC R370A/K372A mutant as the other partner
[2] = target: TrnC (Bacillus thuringiensis); assay: MST; TrnC fluorescently labeled with RED-NHS; series of diluted TrnD (or TrnD(ΔRRE), or an equimolar mixture of TrnD with TrnA or TrnB) mixed with it in capillaries; Monolith instrument; aerobic conditions
[3] = target: TrnC (Bacillus thuringiensis); assay: pull-down; 6× His-tagged TrnC and non-tagged TrnD coexpressed in E. coli from a pRSFduet-1-derived construct; cell lysate purified on Ni-NTA; SDS-PAGE

| Substance | pKd [2] | other results |
| --- | --- | --- |
| TrnC R370A/K372A mutant (enzyme) |  | pKd [1]: 4.99 |
| TrnD(ΔRRE) (enzyme) | 4.00 |  |
| equimolar mixture of TrnD and TrnA (complex) | 6.27 |  |
| non-tagged TrnD (enzyme) |  | stoichiometry N [3]: 1 |
